The record followed here is PMC6904361, “Vitamin D Receptor Inhibits NLRP3 Activation by Impeding Its BRCC3-Mediated Deubiquitination” (Frontiers in Immunology, 2019).

In this test the target is T1, His-NLRP3 (human, UniProt Q96P20 1-1036).
T1 construct: human NLRP3 cloned into pET28a; The methods name only His-NLRP3; also called His-NLRP3-Flag; pET28a-His-NLRP3; source: E. coli (pET28a), IPTG-induced; called purified in the legend
Description: pull-down; GST or GST-VDR with His-NLRP3, pulled down on Glutathione MagBeads, immunoblot; incubation 2 h or overnight at 4 °C on a rotator (methods). The following applies: both partners purified. (In general: A western blot detects proteins with antibodies after separation by electrophoresis.)

T1 sequence (Q96P20 whole entry): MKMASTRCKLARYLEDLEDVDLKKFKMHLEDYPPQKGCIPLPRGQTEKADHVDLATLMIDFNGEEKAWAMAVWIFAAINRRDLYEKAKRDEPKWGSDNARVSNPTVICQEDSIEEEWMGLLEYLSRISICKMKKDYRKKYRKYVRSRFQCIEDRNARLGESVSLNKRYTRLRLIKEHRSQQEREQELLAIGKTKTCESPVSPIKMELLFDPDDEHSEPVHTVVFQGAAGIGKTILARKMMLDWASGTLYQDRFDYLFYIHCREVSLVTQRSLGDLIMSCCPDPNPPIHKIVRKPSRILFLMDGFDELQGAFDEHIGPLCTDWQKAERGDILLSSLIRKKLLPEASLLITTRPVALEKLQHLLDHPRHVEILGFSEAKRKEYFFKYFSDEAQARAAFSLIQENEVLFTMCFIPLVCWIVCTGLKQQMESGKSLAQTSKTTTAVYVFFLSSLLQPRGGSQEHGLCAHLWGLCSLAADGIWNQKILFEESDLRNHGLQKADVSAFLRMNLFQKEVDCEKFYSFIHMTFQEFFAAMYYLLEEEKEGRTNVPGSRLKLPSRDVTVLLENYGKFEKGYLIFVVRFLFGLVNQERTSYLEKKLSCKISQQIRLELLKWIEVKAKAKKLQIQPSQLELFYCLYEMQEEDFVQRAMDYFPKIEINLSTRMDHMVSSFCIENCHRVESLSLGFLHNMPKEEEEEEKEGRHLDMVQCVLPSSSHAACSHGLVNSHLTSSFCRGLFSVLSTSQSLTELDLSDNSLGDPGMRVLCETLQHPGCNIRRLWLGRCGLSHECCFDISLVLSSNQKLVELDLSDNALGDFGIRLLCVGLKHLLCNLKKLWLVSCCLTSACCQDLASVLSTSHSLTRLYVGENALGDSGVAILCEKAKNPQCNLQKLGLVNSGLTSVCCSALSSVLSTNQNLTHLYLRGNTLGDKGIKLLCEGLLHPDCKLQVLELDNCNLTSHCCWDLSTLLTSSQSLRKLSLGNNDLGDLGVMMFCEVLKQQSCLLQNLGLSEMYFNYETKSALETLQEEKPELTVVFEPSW

B1: GST-human VDR (natural protein, UniProt P11473 1-427, looked up)
chain: MEAMAASTSLPDPGDFDRNVPRICGVCGDRATGFHFNAMTCEGCKGFFRRSMKRKALFTCPFNGDCRITKDNRRHCQACRLKRCVDIGMMKEFILTDEEVQRKREMILKRKEEEALKDSLRPKLSEEQQRIIAILLDAHHKTYDPTYSDFCQFRPPVRVNDGGGSHPSRPNSRHTPSFSGDSSSSCSDHCITSSDMMDSSSFSNLDLSEEDSDDPSVTLELSQLSMLPHLADLVSYSIQKVIGFAKMIPGFRDLTSEDQIVLLKSSAIEVIMLRSNESFTMDDMSWTCGNQDYKYRVSDVTKAGHSLELIEPLIKFQVGLKKLNLHEEEHVLLMAICIVSPDRPGVQDAALIEAIQDRLSNTLQTYIRCRHPPPGSHLLYAKMIQKLADLRSLNEEHSKQYRCLSFQPECSMKLTPLVLEVFGNEIS
notes: human vitamin D receptor in pGEX-6P1; also called GST-VDR; pGEX6p-1-GST-VDR; source: E. coli BL21(DE3), IPTG-induced; called purified in the legend
Consider B1, for which the binding result was “binds”.
